Test: soluble on expression in E. coli; label from the status in PepcDB or PDB records

Row | Sequence | soluble on expression in E. coli
1 | MQAINPNWNVPKNIHAFTTTREGGVSLAPYLSFNLGDHVGDNKSAVKTNRTLLVEKFGLPQTPIFLTQTHSTRVIQLPYSGQNLEADAVYTNVPNQVCVVMTADCLPVLFTTTSGNEVAATHAGWRGLCDGVLEETVKYFQAKPEDIIAWFGPAIGPKAFQVGIDVVEKFVVVDEKAKLAFQPDAIEEGKYLSNLYQIATQRLNNLGITQIYGGNHCTFNEKEKFFSYRRDNQTGRMASVIWFE | not soluble
2 | MSLKYVIGIDLGTSAVKTILVNQNGKVCAETSKRYPLIQEKAGYSEQNPEDWVQQTIEALAELVSISNVQAKDIDGISYSGQMHGLVLLDQDRQVLRNAILWNDTRTTPQCIRMTEKFGDHLLDITKNRVLEGFTLPKMLWVKEHEPELFKKTAVFLLPKDYVRFRMTGVIHTEYSDAAGTLLLHITRKEWSNDICNQIGISADICPPLVESHDCVGSLLPHVAAKTGLLEKTKVYAGGADNACGAIGAGILSSGKTLCSIGTSGVILSYEEEKERDFKGKVHFFNHGKKDSFYTMGVTLAAGYSLDWFKRTFAPNESFEQLLQGVEAIPIGANGLLYTPYLVGERTPHADSSIRGSLIGMDGAHNRKHFLRAIMEGITFSLHESIELFREAGKSVHTVVSIGGGAKNDTWLQMQADIFNTRVIKLENEQGPAMGAAMLAAFGSGWFESLEECAEQFIREAAAFYPKAQNVQKYKTLFDLYKNIYTHTKDLNTALKSFRKNEGHHHHHH | soluble
3 | MTDSELMQLSEQVGQALKARGATVTTAESCTGGWVAKVITDIAGSSAWFERGFVTYSNEAKAQMIGVREETLAQHGAVSEPVVVEMAIGALKAARADYAVSISGIAGPDGGSEEKPVGTVWFAFATARGEGITRRECFSGDRDAVRRQATAYALQTLWQQFLQNT | not soluble
4 | MAMAVPVSARPQSPAEGFYAINNQFQTNGPKGFSEIKILANEDMFLRMDLPGVPDEGGLSVYHNRSQETVVVFAKAPKVHTHDSTERRYQTMTGIGCSCCAISSITTHMSDGVFRVILSKTRIDPHRSPCTDPALTGPVLQPHPLAFPQPTMAYESKQLPNGKLFVRADMPGVPKENFTVSVTNGRVKVTGQAPAVSHDSSGRFYSGDVAMLSTPVDIPSRRIKTIAKNGVIRLLIPPF | soluble
5 | MVSLSDLASYPICRRCAGRIFAMVGTGLTNLERGSMLEFSIKCEKNDPEFNFADPQNCEICHGIFDKFSVFLSLVEDKLKEIEYSTFVVGSVFPKEWIELENKIQEAFGAHGESIKKEFNREFGKYITAKTGKEYRKEDPDITIAVNVEYEFVNVSIKSLFIYGKYRKYRRDMPQTRWIHKKDGDSIESIIGEAALRIAGGKNYYLHGSGREDVDVRMLGNGREFVIEVEAPIMRTFDLSILSETVNRSMKGVEIFDLSFVDRKTVKEIKEEKHSKVYDCIIEGDTDIDKLKLEEACTEMNGKNIYQRTPLRVAQRRSDLIRTRKIERMELVAVEGKEAEIVVQAEAGTYIKELISGDSGRTNPSLSSKYGSQLNVKELDVIKICRGELEHHHHHH | not soluble
6 | MDAIFLKLDNIKGESQVEGFEDQIEIMSYSHNVAMQVNNDVSLTERTSGRAHVGEMSLTKFVDLATPVLNEYCCSGRLIRTAVLTLCRNDDGKMRSLIVYTLTNVLISQLSVSGGAGGKPVETMSLNFTKIEWQITAEKSDGAQQESRTSVWDLAMNQIGK | not soluble
7 | MIDLSKTVFYTSIDIGSRYIKGLVLGKRDQEWEALAFSSVKSRGLDEGEIKDAIAFKESVNTLLKELEEQLQKSLRSDFVISFSSVSFEREDTVIERDFGEEKRSITLDILSEMQSEALEKLKENGKTPLHIFSKRYLLDDERIVFNPLDMKASKIAIEYTSIVVPLKVYEMFYNFLQDTVKSPFQLKSSLVSTAEGVLTTPEKDRGVVVVNLGYNFTGLIAYKNGVPIKISYVPVGMKHVIKDVSAVLDTSFEESERLIITHGNAVYNDLKEEEIQYRGLDGNTIKTTTAKKLSVIIHARLREIMSKSKKFFREVEAKIVEEGEIGIPGGVVLTGGGAKIPRINELATEVFKSPVRTGCYANSDRPSIINADEVANDPSFAAAFGNVFAVSENPYEETPVKSENPLKKIFRLFKELME | soluble
8 | MAHHHHHHMARHSSTPLSSSVCVRRKTMSSCRTSSFTHTSSRTLARVQRRFSRETTAPRAVLVTLQDARTNPRNAVRRLDDIHIPSLNQRLSSRLQNSSSQSNRDAIRSPSDANCTAQPNSDNANLATAVLSTKTSATQDAKFLLMPSISVSARAPDTAMADASCNTAPSASS | not soluble
9 | KQVYAFDIQKQALEKTQERLHQADLTNAQLILQGHETLDQFVIKAKAGIFNLGYLPAADKSVITRPQTTIEALEKLCGLLVKGGRIAIMIYYGHEGGDLERDAVLDFVIQLNQQEYTAAIYRTLNQVNNPPFLVMIEKLERYRH | not soluble
10 | MKSHDLKKALCQWTAMLALVVSGAVWAANGVDFSQSPEVSGTQEGAIRMPKEQDRMPLNYVNQPPMIPHSVEGYQVTTNTNRCLQCHGVESYRTTGAPRISPTHFMDSDGKVGAEVAPRRYFCLQCHVPQADTAPIVGNTFTPSKGYGK | soluble
11 | RERLLSEAKATLQNYVAIAMTAIKPLYDAAAPGDEAARANAIKLLSAVSYGKDGYLFGYDSQVVRIFRSTSPDGLGKSFVDARDANGVYINR | not soluble
12 | MGSDKIHHHHHHMKPHTLLIVDDDDTVAEMLELVLRGAGYEVRRAASGEEALQQIYKNLPDALICDVLLPGIDGYTLCKRVRQHPLTKTLPILMLTAQGDISAKIAGFEAGANDYLAKPFEPQELVYRVKNILARTTIETPTTPVQRGKVITVFGAKGGVGKTTIAVSVALALRLRSRRRVVIVDADLTFGDVAVHLNIAPTRSIIDIVRSGDEIEQEMVKQVLLSHPSGLQALLAPPRPEEAELVSAEHMTRILDLLAVNADYVVVDCQTSYDDRTLSVFDRTDHVLLVITPEIGPLKNTSLFLSLANQLGIDPRAISIVLNRSNSGVGIGVNEIERVLRRKINYHVMSGGQPVVTAVNRGTPLILEQPKHPFVQQILYLADQMMKQLDTNQNVQTDTVTR | not soluble
13 | MGSDKIHHHHHHMNKIFKCFPDGKFKVLTMSYDDGKLSDKKLVSIFNKYGIKGTFHINSGLIGSYNRLTKAEIKTLYSGHEVSAHTLTHPTIARCPMEQVTKEILMDRENLEEIVGYPVRGLSYPNGSYNDSIRNLLKYLGIEYSRIVGNSDSFDLPSDFTAWKATCHHNHNLMEHAKEFVFLYKKQYLYMMYVWGHSYEFDRDNNWHLIENFCSYISNKDDIWYATNIEIVDYKNVLDNLKFSAKSDFVYNPSAKSAWITVNDEIVEIKGGTQLKLS | not soluble
14 | MSLEKEYEYLVPPDDYLAAGVHIGTQIKTGDMKKFIFKVRQDGLYVLDIRKLDERIRVAAKFLSRYEPSKILLVAARQYAHKPVQMFSKVVGSDYIVGRFIPGTLTNPMLSEYREPEVVFVNDPAIDKQAVSEATAVGIPVVALCDSNNSSADVDLVIPTNNKGRRALAIVYWLLAREIAKIRGQDFTYSIEDFEAELEGGSHHHHHH | soluble
15 | MSLFQITKVEARIANYSLHQDRVIITSLGIHDRSRYLIITLTDELENQGFGEAATVMIWSGEAAETGLWIVQNRITPLLTGSHYDHPSEILTILDRALQGNPFLKASIDIAAWDLWARRQEKPVSALIGDRKPVESVPTRFSIGAYSVEDTVRLAVESWEAGIRTLKIKTGVPGLDDVARLKAVRERLGKEPILTIDANGAYQTEDQAVAAIEELLPFNLALVEQPTPRDRIGMMARVKQRVDVPILADESIFTPGELAEALDCDAMDLLSLYPGKNGGFTNSLKMAQTAQNAGKYCVIGSNMETDLGQAAMVCLAASLTAFPVEEYASDLMTGMIYTASSTSPALELNNGRLLTPLGTGFGVEPLHDEGHHHHHH | soluble
16 | MGSDKIHHHHHHMPQEPESGADLPSDRTAVFPTPEGPPLPKQVTLQAAKWLVMLQAPNTTQATRAKWQQWRDVHPDHERAWQHIEASATQMRAMHSPLAHGTLIRDDTEKRHARRRAIKLLGVIAFTGTSTWLLRDNPVWREWHADHRTATSERRTIVLADGTRIMLNTASIIDVHFDNAIRLVTLIRGEILVTTAPDSASGTGQPFIVETDQGRLRALGTRFAVRQRENDSHVSLFEGMVEIRPADASDQARVLQAGEQISFTRNAIETPQTIDTHAASWVTGMLVVQEMPLTDFIDELARYRPGYLSCDPELSHLKVSGIYPIEDTERVLDMLLHVHPIEIYSLTRYWVAIRARGDR | not soluble
17 | MNNLMVIDGIEVRRDAYGRYSLNDLHRAAGSLDKHKPAFWLRNEQTERLISELQICNSVNIEPVNVIRGGNNQGTYVCKELVYAYAMWISPSFHLKVIRTFDMV | not soluble
18 | MIYQKQRNTAETQLNISISDDQSPSHINTGVGFLNHMLTLFTFHSGLSLNIEAQGDIDVDDHHVTEDIGIVIGQLLLEMIKDKKHFVRYGTMYIPMDETLARVVVDISGRPYLSFNASLSKEKVGTFDTELVEEFFRAVVINARLTTHIDLIRGGNTHHEIEAIFKAFSRALGIALTATDDQRVPSSKGVIE | soluble
19 | MGHHHHHHSHMQSYLPNDTVESGIHPVYFCSTHYIEMLLKAELPLVFSAFHMSGFAPSQICLQWITQCFWNYLDWIEICHYIATCVFLGPDYQVYICIAVFKHLQQDILQHTQTQDLQVFLKEEALHGFRVSDYFEYMEILEQNYRTVLLRDMRNIRLQST | not soluble
20 | KRRFELRGIVNNISVYDDFAHHPTAIAKTLAGVRAKLSQQESEQEQVGRIFAVLEPRSNTMRSGVHKESLPKSLIDADQVFIYQGEQVTWSVSDLIKQCKPACQVEDNVERLVESIAQQAQAGDIIVVMSNGGFADIHNKLLNRLANIPVPLEDA | not soluble
21 | ISDVKFTVRGNITYSKNEIIERDEENNVYAYQMKKGYRVNQNRGLIALGLFKDYDDIRNSPTQKYGPVMPGDIKYKDVNGDGVVNDGDIVAIGSTSKPNLIYGLGLSATWKGLDVSLHFQGAGKSQFFTYGKCIWAFTEGQWGNILKGTLDNRWVDAETAQKLGIPANENPNASYPRLSYTDNGNGNTTIYEYKNNYRNSTYWLRNGSYVRLKTIDVGYTLPKKIVNKIHFNNVRIFMTGTNLLTWSSFKLWDPEMGASRGEQYPLAKSITLGLSVNL | not soluble
22 | DLLSWFKGNDRPPAPAGKALEFSKPAAWQNNLPLTPADKVSGYNNFYEFGLDKADPAANAGSLKTDPWTLKISGEVAKPLTLDHDDLTRRFPLEERIYRMRCVEAWSMVVPWIGFPLHKLLALAEPTSNAKYVAFETIYAPEQMPGQQDRFIGGGLKYPYVEGLRLDEAMHPLTLMTVGVYGKALPPQNGAPVRLIVPWKYGFKGIKSIVSIKLTRERPPTTWNLAAPDEYGFYANVNPYVDHPRWSQATERFIGSGGILDVQRQPTLLFNGYADQVASLYRGLDLRENFLEHHHHHH | soluble
23 | MGSDKIHHHHHHMVMIQLCEWQQQGQFLSINDQQIFTRQAGDRKAPALLLIHGYPSASWDWEGMWHELTQHYFVVTLDMLGFGFSDKPKNVDYLISQQADIYEAVLQQFGVSHYHILAHDYGDTVAQELLARQLDGNSTLSINSVCFLNGGLFPETHKPLLIQTLLLSPLGPLVSKLINKQKFAVNLQRIFGPSTPPTPQVIDALWQLLNHNNGLAVMHKLINYITQRKQHRERWVGAIINSTIPIKLIAGVKDPISGQHMIDHYRKLIPHADVTELPTLGHYPQVEDANAIIAAYLQFRLNRT | not soluble
24 | LRSAARTLYTWTLPNEYELIDVREPHEIEHTPSGAHITLPQSMWNDTTAIQHALDNITTDNVVVVCASGIRSAAFIEQFAHLNPHLTFHNVPSGINELP | not soluble
